No end group written: not given here.
How the values were obtained:
pathogens = conditions: cited from earlier work
E. coli BL21(DE3) cells = format: cell-based; conditions: for concentration showing significant anti-bacterial activity: BL21(DE3) E. coli
Protocol: Growth inhibition activity can be tested against E. coli BL21(DE3) cells. Overnight cultures of cells were diluted to 200 μL of an initial OD600 of 0.05-0.1 in LB medium. Diluted cultures were grown at 37° C., 1000 rpm in a PHMP-4 Microplate Shaker (Grant Instruments, Cambridge, England). Protein was added to the culture at an OD600 of 0.1-0.2. Growth measured by OD600 was monitored over time and were conducted in triplicate. TEV-digested material contained HB-Enc fusion protein (0.5 mg/mL) that was incubated with TEV protease (0.5 U/mL) overnight for 17 h at 4° C.

TEV protease = target: T1, TEV protease (Tobacco etch virus, UniProt P04517); format: biochemical; conditions: for release of HB peptide by TEV protease: GT linker instead of G4T linker between TEV site and N-terminus of Enc, SDS-PAGE; for extent of TEV protease digestion / release of HBCM2 peptide: exogenous TEV protease, overnight at 4° C., G4T linker
T1 construct: Tobacco etch virus protease (TEV protease)
Protocol: All purified constructs were digested by addition of exogenous TEV protease, followed by overnight incubation at 4° C. Products were resolved on a 16.5% Tris-Tricine gel (Bio-Rad).

[1] = Proteolysis of HB fusion constructs in C43(DE3) cell lysate (SDS-PAGE, anti-His Western blot); parameters: species or system E. coli
Protocol: In particular, in order to perform the testing, all DNA plasmids were transformed and expressed in C43(DE3) cells as described in Example 12, except that cells were grown in 25 mL of LB medium in 150-mL flasks. IPTG induction was conducted overnight for 17 h at 18° C. to enhance soluble protein expression. Cells were harvested and lysed also as described in Example 12.
To test for proteolysis in cell lysate, cells expressing the HB-Enc constructs from 25 mL of culture were harvested and resuspended in phosphate buffer (50 mM sodium phosphate pH 8.0, 500 mM NaCl) and 10 U/mL of DNaseI. Cells were lysed via a French Pressure cell at 14,000 psi and then centrifuged at 12,000 g, 4° C. for 25 min. The supernatant (soluble) fraction was collected and incubated at 4° C. overnight. Samples for SDS-PAGE analysis were collected immediately after lysis and after overnight incubation.
As controls, samples after BPER-II lysis were also prepared. Samples were resolved on an any-kDa SDS-PAGE gel (Bio-Rad) and stained with Coomassie blue. For Western blot analysis, samples were resolved on an any-kDa and blotted to a PVDF membrane using a Transblot Turbo System (Bio-Rad) at 2.5 A for 7 min. Samples were probed using a mouse anti-His-tag primary antibody and a rabbit anti-Mouse-HRP conjugated secondary antibody (both from Bio-Rad). HRP was detected on the membrane using chemiluminescence.

[2] = French press lysis without BPER-II, then overnight incubation at 4° C.
[3] = immediately after French press lysis

Cecropin PR-39
bactericidal activity (pathogens): high bactericidal activity

GNNRPVYIPQPRPPHPRI [native Ap peptide, Apidaecin Ia, reference compound]
concentration showing significant anti-bacterial activity (E. coli BL21(DE3) cells; chemically synthesized peptide): ≥ 100 µg/mL
bactericidal activity (pathogens): high bactericidal activity

MKWKSFIKKLTKAAKKVVTTAKKPLIVENLYFQ [M-HBCM2-TEV]
concentration showing significant anti-bacterial activity (E. coli BL21(DE3) cells; chemically synthesized peptide): 2 µg/mL
MIC (E. coli BL21(DE3) cells; chemically synthesized peptide, E. coli BL21(DE3), FIG. 31 Panel B): < 5 µg/mL

B1: HB-EncD60^TEVK138^TEV-His with the shorter GT linker: HB-EncD60^TEVK138^TEV-His with a GT linker instead of the G4T linker (protein)
chain: MKWKSFIKKLTKAAKKVVTTAKKPLIVENLYFQGGTEFLKRSFAPLTEKQWQEIDNRAREIFKTQLYGRKFVDVEGPYGWEYAAHPLGEVEVLSDGGENLYFQGGGENEVVKWGLRKSLPLIELRATFTLDLWELDNLERGKPNVDLSSLEETVRKVAEFEDEVIFRGCEKSGVKGLLSFEERKGGGGGENLYFQGHHHHHHGGGGGIECGSTPKDLLEAIVRALSIFSKDGIEGPYTLVINTDRWINFLKEEAGHYPLEKRVEECLRGGKIITTPRIEDALVVSERGGDFKLILGQDLSIGYEDREKDAVRLFITETFTFQVVNPEALILLK
release of HB peptide by TEV protease (TEV protease): did not result in detectable release of HB peptide

B2: HB-EncV57^TEVK138^TEV-His: HB-Enc fusion with TEV site after V57 plus TEV-His insertion after K138; cage forming (protein)
chain: MKWKSFIKKLTKAAKKVVTTAKKPLIVENLYFQGGGGGTEFLKRSFAPLTEKQWQEIDNRAREIFKTQLYGRKFVDVEGPYGWEYAAHPLGEVEVGGENLYFQGGGLSDENEVVKWGLRKSLPLIELRATFTLDLWELDNLERGKPNVDLSSLEETVRKVAEFEDEVIFRGCEKSGVKGLLSFEERKGGGGGENLYFQGHHHHHHGGGGGIECGSTPKDLLEAIVRALSIFSKDGIEGPYTLVINTDRWINFLKEEAGHYPLEKRVEECLRGGKIITTPRIEDALVVSERGGDFKLILGQDLSIGYEDREKDAVRLFITETFTFQVVNPEALILLK
proteolysis in cell lysate [1, 2]: resistant to proteolysis

B3: HB-EncK71^TEV (protein)
chain: MKWKSFIKKLTKAAKKVVTTAKKPLIVENLYFQGGGGGTEFLKRSFAPLTEKQWQEIDNRAREIFKTQLYGRKFVDVEGPYGWEYAAHPLGEVEVLSDENEVVKWGLRKGGENLYFQGGGSLPLIELRATFTLDLWELDNLERGKPNVDLSSLEETVRKVAEFEDEVIFRGCEKSGVKGLLSFEERKIECGSTPKDLLEAIVRALSIFSKDGIEGPYTLVINTDRWINFLKEEAGHYPLEKRVEECLRGGKIITTPRIEDALVVSERGGDFKLILGQDLSIGYEDREKDAVRLFITETFTFQVVNPEALILLK
extent of TEV protease digestion / release of HBCM2 peptide (TEV protease): apparent complete digestion
proteolysis in cell lysate [1, 2]: completely proteolyzed
proteolysis in cell lysate [1, 3]: significantly degraded

B4: HB-EncD60^TEVK138^TEV-His: HB-Enc fusion with TEV site after D60 plus TEV-His insertion after K138; cage forming (protein)
chain: MKWKSFIKKLTKAAKKVVTTAKKPLIVENLYFQGGGGGTEFLKRSFAPLTEKQWQEIDNRAREIFKTQLYGRKFVDVEGPYGWEYAAHPLGEVEVLSDGGENLYFQGGGENEVVKWGLRKSLPLIELRATFTLDLWELDNLERGKPNVDLSSLEETVRKVAEFEDEVIFRGCEKSGVKGLLSFEERKGGGGGENLYFQGHHHHHHGGGGGIECGSTPKDLLEAIVRALSIFSKDGIEGPYTLVINTDRWINFLKEEAGHYPLEKRVEECLRGGKIITTPRIEDALVVSERGGDFKLILGQDLSIGYEDREKDAVRLFITETFTFQVVNPEALILLK
proteolysis in cell lysate [1, 2]: resistant to proteolysis

B5: HB-EncK138^TEV-His with the shorter GT linker: HB-EncK138^TEV-His with a GT linker between TEV site and N-terminus of Enc instead of G4T (protein)
chain: MKWKSFIKKLTKAAKKVVTTAKKPLIVENLYFQGGTEFLKRSFAPLTEKQWQEIDNRAREIFKTQLYGRKFVDVEGPYGWEYAAHPLGEVEVLSDENEVVKWGLRKSLPLIELRATFTLDLWELDNLERGKPNVDLSSLEETVRKVAEFEDEVIFRGCEKSGVKGLLSFEERKGGGGGENLYFQGHHHHHHGGGGGIECGSTPKDLLEAIVRALSIFSKDGIEGPYTLVINTDRWINFLKEEAGHYPLEKRVEECLRGGKIITTPRIEDALVVSERGGDFKLILGQDLSIGYEDREKDAVRLFITETFTFQVVNPEALILLK
release of HB peptide by TEV protease (TEV protease): did not result in detectable release of HB peptide

B6: HB-EncK71^TEVK138^TEV-His: HBCM2 fused to N-terminus of T. maritima encapsulin; TEV sites after K71 and K138, His-tag; non-cage forming (protein)
chain: MKWKSFIKKLTKAAKKVVTTAKKPLIVENLYFQGGGGGTEFLKRSFAPLTEKQWQEIDNRAREIFKTQLYGRKFVDVEGPYGWEYAAHPLGEVEVLSDENEVVKWGLRKGGENLYFQGGGSLPLIELRATFTLDLWELDNLERGKPNVDLSSLEETVRKVAEFEDEVIFRGCEKSGVKGLLSFEERKGGGGGENLYFQGHHHHHHGGGGGIECGSTPKDLLEAIVRALSIFSKDGIEGPYTLVINTDRWINFLKEEAGHYPLEKRVEECLRGGKIITTPRIEDALVVSERGGDFKLILGQDLSIGYEDREKDAVRLFITETFTFQVVNPEALILLK
growth inhibition of E. coli (E. coli BL21(DE3) cells; undigested fusion protein at 40 μg/mL): did not inhibit the growth
extent of TEV protease digestion / release of HBCM2 peptide (TEV protease): apparent complete digestion
truncated products on expression (proteolysis) ([1]; C43(DE3) cells, anti-His-tag Western blot): some truncated products
proteolysis in cell lysate [1, 2]: completely proteolyzed
proteolysis in cell lysate [1, 3]: significantly degraded

B7: HB-EncK138^TEV-His: HBCM2, TEV site, G4T-linker fused to N-terminus of Enc; TEV site and His6-tag after K138; cage forming (protein)
chain: MKWKSFIKKLTKAAKKVVTTAKKPLIVENLYFQGGGGGTEFLKRSFAPLTEKQWQEIDNRAREIFKTQLYGRKFVDVEGPYGWEYAAHPLGEVEVLSDENEVVKWGLRKSLPLIELRATFTLDLWELDNLERGKPNVDLSSLEETVRKVAEFEDEVIFRGCEKSGVKGLLSFEERKGGGGGENLYFQGHHHHHHGGGGGIECGSTPKDLLEAIVRALSIFSKDGIEGPYTLVINTDRWINFLKEEAGHYPLEKRVEECLRGGKIITTPRIEDALVVSERGGDFKLILGQDLSIGYEDREKDAVRLFITETFTFQVVNPEALILLK
proteolysis in cell lysate [1, 2]: resistant to proteolysis

B8: TEV protease: Tobacco etch virus protease, recognition sequence ENLYFQ/G; negative control alone (protein)
chain: GESLFKGPRDYNPISSTICHLTNESDGHTTSLYGIGFGPFIITNKHLFRRNNGTLLVQSLHGVFKVKNTTTLQQHLIDGRDMIIIRMPKDFPPFPQKLKFREPQREERICLVTTNFQTKSMSSMVSDTSCTFPSSDGIFWKHWIQTKDGQCGSPLVSTRDGFIVGIHSASNFTNTNNYFTSVPKNFMELLTNQEAQQWVSGWRLNADSVLWGGHKVFMSKPEEPFQPVKEATQLMNELVYSQ
anti-bacterial / growth inhibition activity (E. coli BL21(DE3) cells; E. coli BL21(DE3), concentration not given): no growth inhibition

B9: HB-EncV57^TEVK138^TEV-His with the shorter GT linker: HB-EncV57^TEVK138^TEV-His with a GT linker instead of the G4T linker (protein)
chain: MKWKSFIKKLTKAAKKVVTTAKKPLIVENLYFQGGTEFLKRSFAPLTEKQWQEIDNRAREIFKTQLYGRKFVDVEGPYGWEYAAHPLGEVEVGGENLYFQGGGLSDENEVVKWGLRKSLPLIELRATFTLDLWELDNLERGKPNVDLSSLEETVRKVAEFEDEVIFRGCEKSGVKGLLSFEERKGGGGGENLYFQGHHHHHHGGGGGIECGSTPKDLLEAIVRALSIFSKDGIEGPYTLVINTDRWINFLKEEAGHYPLEKRVEECLRGGKIITTPRIEDALVVSERGGDFKLILGQDLSIGYEDREKDAVRLFITETFTFQVVNPEALILLK
release of HB peptide by TEV protease (TEV protease): did not result in detectable release of HB peptide

Reference: US10738090B2, “Engineered microcompartment protein and related methods and systems of engineering bacterial systems for non-native protein expression and purification” (priority 2017, dated 2020)
